Series [1] has as its system PE-Bce integrase fusion (PASTE v4; printed Bcel). The series is described as follows: cell_activity. As to conditions: PASTE v4 comparator, Hepa1c1c7; att sequences not given.
Series [2] relates to PE-Bxb1 integrase fusion (PASTE v3; printed Bxbl). The series is described as follows: cell_activity. The following applies: PASTE v3 comparator, Hepa1c1c7; att sequences not given.

The record followed here is US20240401013.

For Bce att sites (PASTE v4), the activity (% mCherry-positive cells) in series [1] was 0.5.
Bxb1 att sites (PASTE v3) registered an activity (% mCherry-positive cells) in series [2] of 3.8.
